Data on two molecules can be found in patent publication US20050282743A1, “Molecular interactions in cells” (Arbor Vita Corporation, priority 2001, published 2005).

The target in experiment [1] is GST-Atrophin-1 Interacting Protein PDZ domain 1 (Rattus norvegicus (Rat)), O88382. Put plainly: G' assay. Further: key of the grades not given here.
Experiment [2] concerns the target T1, GST-BAI-1 Associated Protein PDZ domain 2 (Mus musculus (Mouse)), Q6RHR9. Nature of the experiment: G' assay. Further: key of the grades not given here.
The target of experiment [3] is GST-DLG1 PDZ domain 1 (Homo sapiens), Q12959. Nature of the experiment: G' assay. Further: key of the grades not given here.
The target in experiment [4] is T2, GST-DLG1 PDZ domain 2 (Homo sapiens), Q12959.
T2 chain: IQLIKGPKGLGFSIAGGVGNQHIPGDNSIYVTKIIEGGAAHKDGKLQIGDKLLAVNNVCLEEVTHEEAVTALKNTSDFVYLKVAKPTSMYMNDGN
Put plainly: G' assay. Further: key of the grades not given here.

Experiment [5] concerns the target T3, GST-DLG1 PDZ domain 3 (Homo sapiens), Q12959.
T3 chain: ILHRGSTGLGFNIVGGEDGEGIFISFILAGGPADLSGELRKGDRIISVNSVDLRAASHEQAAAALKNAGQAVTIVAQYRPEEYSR
Nature of the experiment: G' assay. Further: key of the grades not given here.

In experiment [6] the target is GST-DLG1 PDZ domains 1, 2 (Homo sapiens), Q12959. Put plainly: G' assay. Further: key of the grades not given here.
Experiment [7] addresses GST-DLG2 PDZ domain 1 (Homo sapiens (Human)), Q15700. Put plainly: G' assay. Further: key of the grades not given here.
The target in experiment [8] is T4, GST-DLG2 PDZ domain 2 (Homo sapiens (Human)), Q15700.
T4 chain: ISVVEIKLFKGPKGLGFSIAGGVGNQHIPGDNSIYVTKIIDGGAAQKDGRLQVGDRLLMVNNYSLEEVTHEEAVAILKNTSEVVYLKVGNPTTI
Put plainly: G' assay. Further: key of the grades not given here.

In experiment [9] the target is GST-KIAA0147 PDZ domain 1 (Homo sapiens (Human)), Q14160. Nature of the experiment: G' assay. Further: key of the grades not given here.
The target of experiment [10] is T5, GST-KIAA0303 PDZ domain 1 (Homo sapiens (Human)), O15021.
T5 chain: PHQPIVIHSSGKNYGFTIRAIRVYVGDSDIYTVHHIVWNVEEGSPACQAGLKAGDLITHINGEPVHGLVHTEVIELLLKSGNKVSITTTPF
Put plainly: G' assay. Further: key of the grades not given here.

The target of experiment [11] is T6, GST-KIAA0807(S) PDZ domain 1 (Homo sapiens (Human)), Q6P0Q8.
T6 chain: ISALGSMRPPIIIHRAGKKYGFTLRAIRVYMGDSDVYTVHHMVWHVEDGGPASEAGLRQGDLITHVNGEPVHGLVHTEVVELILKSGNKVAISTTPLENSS
Put plainly: G' assay. Further: key of the grades not given here.

Experiment [12] has as its target GST-KIAA1634 PDZ domain 1 (Homo sapiens (Human)), Q5TCQ9. Put plainly: G' assay. Further: key of the grades not given here.
In experiment [13] the target is T7, GST-KIAA1719 PDZ domain 3 (Homo sapiens (Human)), Q9C0E4.
T7 chain: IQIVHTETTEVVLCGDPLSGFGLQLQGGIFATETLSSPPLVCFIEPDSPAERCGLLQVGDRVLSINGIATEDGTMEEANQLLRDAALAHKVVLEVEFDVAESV
Put plainly: G' assay. Further: key of the grades not given here.

Experiment [14] deals with T8, GST-MUPP1 PDZ domain 10 (Homo sapiens (Human)), O75970.
T8 chain: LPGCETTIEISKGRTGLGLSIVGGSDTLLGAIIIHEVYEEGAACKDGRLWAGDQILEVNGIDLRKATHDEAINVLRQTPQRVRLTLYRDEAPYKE
Put plainly: G' assay.

The target in experiment [15] is T9, GST-MUPP1 PDZ domain 11 (Homo sapiens (Human)), O75970.
T9 chain: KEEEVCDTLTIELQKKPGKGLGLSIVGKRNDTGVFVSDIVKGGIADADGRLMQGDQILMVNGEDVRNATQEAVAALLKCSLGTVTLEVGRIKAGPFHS
Put plainly: G' assay.

Experiment [16] has as its target T10, GST-NeDLG PDZ domain 2 (Rattus norvegicus (Rat)), Q62936.
T10 chain: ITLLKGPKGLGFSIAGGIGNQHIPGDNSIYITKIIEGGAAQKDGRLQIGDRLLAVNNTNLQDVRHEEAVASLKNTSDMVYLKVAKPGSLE
Put plainly: G' assay.

Experiment [17] deals with T11, GST-NeDLG PDZ domain 3 (Mus musculus (Mouse)), P70175.
T11 chain: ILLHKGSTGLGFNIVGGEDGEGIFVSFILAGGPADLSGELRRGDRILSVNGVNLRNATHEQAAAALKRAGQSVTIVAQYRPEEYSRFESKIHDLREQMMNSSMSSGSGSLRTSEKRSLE
Nature of the experiment: G' assay.

In experiment [18] the target is T12, GST-NeDLG PDZ domains 1, 2, Q92796.
T12 chain: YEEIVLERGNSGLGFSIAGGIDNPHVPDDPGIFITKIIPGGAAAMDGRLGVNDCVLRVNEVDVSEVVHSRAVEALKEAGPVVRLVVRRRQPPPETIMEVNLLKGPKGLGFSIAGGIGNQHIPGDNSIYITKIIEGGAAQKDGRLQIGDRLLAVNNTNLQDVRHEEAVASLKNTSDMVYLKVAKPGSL
Put plainly: G' assay.

In experiment [19] the target is GST-PSD95 PDZ domain 1 (Homo sapiens). Nature of the experiment: G' assay.
The target in experiment [20] is T13, GST-PSD95 PDZ domain 3 (Homo sapiens).
T13 chain: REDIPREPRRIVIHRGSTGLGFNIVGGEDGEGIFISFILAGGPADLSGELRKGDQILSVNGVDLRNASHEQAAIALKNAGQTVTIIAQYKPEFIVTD
Put plainly: G' assay.

The target of experiment [21] is GST-PSD95 PDZ domains 1, 2, 3 (Homo sapiens), P78352. Put plainly: G' assay. Further: key of the grades not given here.
The target of experiment [22] is T1, GST-BAI-1 Associated Protein PDZ domain …. Put plainly: G assay titration, PDZ 1 ug/ml.
Experiment [23] concerns the target T12, GST-NeDLG PDZ domains 1, 2, Q92796. Put plainly: G assay titration, PDZ 1 ug/ml.
Experiment [24] has as its target T13, GST-PSD95 PDZ domain 3 (Homo sapiens). Put plainly: G assay titration, PDZ 1 ug/ml.
Experiment [25] concerns the target T14, GST-Outer Membrane PDZ domain 1 (Homo sapiens (Human)), P57105.
T14 chain: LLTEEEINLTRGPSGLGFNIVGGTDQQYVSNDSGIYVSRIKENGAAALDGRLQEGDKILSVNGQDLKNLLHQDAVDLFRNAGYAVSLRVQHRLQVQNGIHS
Nature of the experiment: G' assay.

Experiment [26] concerns the target GST-DLG1 PDZ domains 1, 2 (Homo sapiens), Q12959. Put plainly: G assay titration, PDZ 5 ug/ml.

Broadly, the Kd is the free concentration of one partner at which half of the binding sites on the other are occupied at equilibrium, for simple one-to-one binding. The low end stands for higher affinity, the high end for lower affinity.

Chain of GST-Atrophin-1 Interacting Protein PDZ domain 1 (Rattus norvegicus (Rat)), O88382 (O88382 408-511): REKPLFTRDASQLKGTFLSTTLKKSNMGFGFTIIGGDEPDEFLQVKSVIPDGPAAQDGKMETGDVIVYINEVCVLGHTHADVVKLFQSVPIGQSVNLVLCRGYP
Chain of GST-KIAA1634 PDZ domain 1 (Homo sapiens (Human)), Q5TCQ9 (Q5TCQ9 401-502): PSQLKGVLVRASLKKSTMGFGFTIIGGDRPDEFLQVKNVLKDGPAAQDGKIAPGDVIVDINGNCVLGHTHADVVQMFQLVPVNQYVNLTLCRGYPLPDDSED
Chain of GST-PSD95 PDZ domains 1, 2, 3 (Homo sapiens), P78352 (P78352 62-395): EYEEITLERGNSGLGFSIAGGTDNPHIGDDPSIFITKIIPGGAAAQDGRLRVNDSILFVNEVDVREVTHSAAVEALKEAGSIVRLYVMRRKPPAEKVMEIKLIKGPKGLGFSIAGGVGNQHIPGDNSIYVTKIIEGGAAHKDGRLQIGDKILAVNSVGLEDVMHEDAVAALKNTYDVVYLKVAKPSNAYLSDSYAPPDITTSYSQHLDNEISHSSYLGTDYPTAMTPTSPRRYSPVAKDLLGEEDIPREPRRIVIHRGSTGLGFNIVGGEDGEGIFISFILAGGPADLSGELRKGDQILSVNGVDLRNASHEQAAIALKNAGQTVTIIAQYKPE
T1 sequence (Q6RHR9 455-558): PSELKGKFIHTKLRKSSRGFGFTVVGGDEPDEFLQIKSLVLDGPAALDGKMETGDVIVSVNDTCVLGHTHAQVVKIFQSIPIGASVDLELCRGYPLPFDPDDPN
Chain of GST-KIAA0147 PDZ domain 1 (Homo sapiens (Human)), Q14160 (Q14160 other isoform, or with tags, fused parts or gaps): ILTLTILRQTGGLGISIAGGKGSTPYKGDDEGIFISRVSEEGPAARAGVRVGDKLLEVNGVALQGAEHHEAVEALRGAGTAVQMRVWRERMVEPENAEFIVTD

Consider SFTSILTCHQRRTQRKETVA (modifications not checked) [GluR5-2 (rat)], for which the Classification in experiment [1] amounted to 1 A450 class; in experiment [2], 5 A450 class; in [3], 2 A450 class; in experiment [4], 2 A450 class; in experiment [5], 1 A450 class; in [6], 5 A450 class. The Classification in experiment [7] was determined as 1 A450 class; in experiment [8] it was 1 A450 class; in experiment [9], 2 A450 class; in experiment [10], 1 A450 class; in experiment [11], 1 A450 class; in experiment [12] it was 5 A450 class. The Classification was determined as 1 A450 class in experiment [13]; 2 A450 class in experiment [14]; 1 A450 class in experiment [15]; 1 A450 class in experiment [16]; 2 A450 class in experiment [17]; 5 A450 class in experiment [18]. The Classification came to 3 A450 class in experiment [19], 5 A450 class in experiment [20] and 5 A450 class in experiment [21]. The Kd in experiment [22] was found to be 300 nM; in [23], 100 nM; in experiment [24], 100 nM.

As for LHNQASVPLEPRPLRRESEI (modifications not checked) [Kir2.1 (inwardly rect. K+ channel)], the Classification in experiment [1] stood at 1 A450 class; in experiment [4], 1 A450 class; in experiment [6], 2 A450 class; in [8] it was 1 A450 class; in [12], 1 A450 class; in [18] it was 1 A450 class. Also, the Classification in experiment [25] came out at 4 A450 class; in experiment [21] it was 2 A450 class. In experiment [26], this molecule had a Kd of 5000 nM.
